# Measurements published in the supplement of paper PMC9112550, “Optimization of the antimicrobial peptide Bac7 by deep mutational scanning” (BMC Biology, 2022).
# System: Escherichia coli TOP10
# Assay: shrunken log2 fold change of peptide-encoding DNA abundance (4.5 h post-induction vs induction); higher = less antimicrobial activity (less host growth inhibition)
# Settings: time post-induction: 4.5 h; library: site-saturation at positions 5, 18, 19, 20
# 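Further: peptides expressed intracellularly from a pBAD plasmid library in pooled LB shake-flask culture, induced with 0.3% L-arabinose, DNA abundance read by NGS, three biological replicates, DESeq2 with apeglm shrinkage.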
row,Sequence,shrunken log2 fold change
1,RRIRRRPPRLPRPRPRPKKWPRP,0.114
2,RRIRRRPPRLPRPRPRPKLAPRP,0.333
3,RRIRRRPPRLPRPRPRPKLHPRP,0.167
4,RRIRRRPPRLPRPRPRPKMKPRP,0.316
5,RRIRRRPPRLPRPRPRPKMTPRP,0.24
6,RRIRRRPPRLPRPRPRPKNLPRP,-0.104
7,RRIRRRPPRLPRPRPRPKNQPRP,0.173
8,RRIRRRPPRLPRPRPRPKQIPRP,0.289
9,RRIRRRPPRLPRPRPRPKSIPRP,-0.0792
10,RRIRRRPPRLPRPRPRPKSKPRP,0.165
11,RRIRRRPPRLPRPRPRPKTCPRP,0.265
12,RRIRRRPPRLPRPRPRPKTNPRP,0.221
13,RRIRRRPPRLPRPRPRPKTSPRP,2.22
14,RRIRRRPPRLPRPRPRPKVIPRP,-0.256
15,RRIRRRPPRLPRPRPRPKWAPRP,0.0296
16,RRIRRRPPRLPRPRPRPKWIPRP,-0.096
17,RRIRRRPPRLPRPRPRPKWNPRP,0.0781
18,RRIRRRPPRLPRPRPRPKYMPRP,-0.444
19,RRIRRRPPRLPRPRPRPLAYPRP,-0.00715
20,RRIRRRPPRLPRPRPRPLCAPRP,0.646
21,RRIRRRPPRLPRPRPRPLCTPRP,0.354
22,RRIRRRPPRLPRPRPRPLCVPRP,0.537
23,RRIRRRPPRLPRPRPRPLDKPRP,-0.152
24,RRIRRRPPRLPRPRPRPLEEPRP,0.597
25,RRIRRRPPRLPRPRPRPLGCPRP,0.166

row,Sequence,shrunken log2 fold change
1,RRIRRRPPRLPRPRPRPLGEPRP,0.144
2,RRIRRRPPRLPRPRPRPLGYPRP,0.26
3,RRIRRRPPRLPRPRPRPLHCPRP,0.0886
4,RRIRRRPPRLPRPRPRPLHKPRP,-0.191
5,RRIRRRPPRLPRPRPRPLIHPRP,0.125
6,RRIRRRPPRLPRPRPRPLIKPRP,-0.0254
7,RRIRRRPPRLPRPRPRPLIMPRP,-0.325
8,RRIRRRPPRLPRPRPRPLIQPRP,0.256
9,RRIRRRPPRLPRPRPRPLKVPRP,0.0966
10,RRIRRRPPRLPRPRPRPLLKPRP,0.415
11,RRIRRRPPRLPRPRPRPLLNPRP,-0.00444
12,RRIRRRPPRLPRPRPRPLPCPRP,-0.0345
13,RRIRRRPPRLPRPRPRPLPMPRP,0.541
14,RRIRRRPPRLPRPRPRPLQFPRP,0.313
15,RRIRRRPPRLPRPRPRPLQRPRP,0.969
16,RRIRRRPPRLPRPRPRPLRTPRP,1.41
17,RRIRRRPPRLPRPRPRPLSGPRP,0.379
18,RRIRRRPPRLPRPRPRPLTFPRP,2.56
19,RRIRRRPPRLPRPRPRPLVLPRP,0.0551
20,RRIRRRPPRLPRPRPRPLYWPRP,0.0153
21,RRIRRRPPRLPRPRPRPMALPRP,5.63e-05
22,RRIRRRPPRLPRPRPRPMCGPRP,-0.0233
23,RRIRRRPPRLPRPRPRPMDRPRP,0.118
24,RRIRRRPPRLPRPRPRPMDSPRP,-0.0307
25,RRIRRRPPRLPRPRPRPMEDPRP,0.0525

row,Sequence,shrunken log2 fold change
1,RRIRRRPPRLPRPRPRPMEYPRP,-0.0405
2,RRIRRRPPRLPRPRPRPMFPPRP,0.118
3,RRIRRRPPRLPRPRPRPMGKPRP,0.35
4,RRIRRRPPRLPRPRPRPMGQPRP,0.267
5,RRIRRRPPRLPRPRPRPMHFPRP,0.0461
6,RRIRRRPPRLPRPRPRPMKKPRP,-0.0239
7,RRIRRRPPRLPRPRPRPMLEPRP,0.0718
8,RRIRRRPPRLPRPRPRPMLPPRP,-0.000603
9,RRIRRRPPRLPRPRPRPMMGPRP,0.235
10,RRIRRRPPRLPRPRPRPMMPPRP,0.135
11,RRIRRRPPRLPRPRPRPMMQPRP,0.112
12,RRIRRRPPRLPRPRPRPMNDPRP,0.338
13,RRIRRRPPRLPRPRPRPMPAPRP,0.203
14,RRIRRRPPRLPRPRPRPMPQPRP,0.376
15,RRIRRRPPRLPRPRPRPMQPPRP,0.0874
16,RRIRRRPPRLPRPRPRPMRGPRP,1.38
17,RRIRRRPPRLPRPRPRPMTEPRP,0.0575
18,RRIRRRPPRLPRPRPRPMTPPRP,0.749
19,RRIRRRPPRLPRPRPRPMTQPRP,0.176
20,RRIRRRPPRLPRPRPRPMVIPRP,-0.189
21,RRIRRRPPRLPRPRPRPNARPRP,0.35
22,RRIRRRPPRLPRPRPRPNDSPRP,-0.286
23,RRIRRRPPRLPRPRPRPNEVPRP,-0.0332
24,RRIRRRPPRLPRPRPRPNFAPRP,0.0508
25,RRIRRRPPRLPRPRPRPNFKPRP,0.092

row,Sequence,shrunken log2 fold change
1,RRIRRRPPRLPRPRPRPNFYPRP,-0.124
2,RRIRRRPPRLPRPRPRPNGLPRP,0.0125
3,RRIRRRPPRLPRPRPRPNIKPRP,0.153
4,RRIRRRPPRLPRPRPRPNINPRP,-0.156
5,RRIRRRPPRLPRPRPRPNKCPRP,-0.634
6,RRIRRRPPRLPRPRPRPNKWPRP,0.0315
7,RRIRRRPPRLPRPRPRPNMHPRP,0.0848
8,RRIRRRPPRLPRPRPRPNMKPRP,0.069
9,RRIRRRPPRLPRPRPRPNMLPRP,-0.061
10,RRIRRRPPRLPRPRPRPNNCPRP,0.129
11,RRIRRRPPRLPRPRPRPNNWPRP,0.612
12,RRIRRRPPRLPRPRPRPNPIPRP,0.208
13,RRIRRRPPRLPRPRPRPNPLPRP,0.269
14,RRIRRRPPRLPRPRPRPNTNPRP,-0.22
15,RRIRRRPPRLPRPRPRPNTPPRP,0.0411
16,RRIRRRPPRLPRPRPRPNYNPRP,-0.556
17,RRIRRRPPRLPRPRPRPPAAPRP,0.947
18,RRIRRRPPRLPRPRPRPPCPPRP,0.641
19,RRIRRRPPRLPRPRPRPPDVPRP,0.474
20,RRIRRRPPRLPRPRPRPPFTPRP,0.0961
21,RRIRRRPPRLPRPRPRPPHIPRP,0.655
22,RRIRRRPPRLPRPRPRPPHNPRP,1.21
23,RRIRRRPPRLPRPRPRPPIAPRP,0.385
24,RRIRRRPPRLPRPRPRPPIDPRP,0.144
25,RRIRRRPPRLPRPRPRPPIEPRP,0.339

row,Sequence,shrunken log2 fold change
1,RRIRRRPPRLPRPRPRPPIIPRP,0.164
2,RRIRRRPPRLPRPRPRPPIVPRP,-0.00408
3,RRIRRRPPRLPRPRPRPPKVPRP,0.693
4,RRIRRRPPRLPRPRPRPPKWPRP,0.628
5,RRIRRRPPRLPRPRPRPPKYPRP,-0.14
6,RRIRRRPPRLPRPRPRPPLKPRP,0.302
7,RRIRRRPPRLPRPRPRPPLPPRP,1.06
8,RRIRRRPPRLPRPRPRPPLVPRP,1.23
9,RRIRRRPPRLPRPRPRPPLWPRP,0.883
10,RRIRRRPPRLPRPRPRPPNLPRP,0.593
11,RRIRRRPPRLPRPRPRPPNTPRP,0.884
12,RRIRRRPPRLPRPRPRPPNWPRP,0.581
13,RRIRRRPPRLPRPRPRPPQVPRP,1.33
14,RRIRRRPPRLPRPRPRPPQYPRP,1.12
15,RRIRRRPPRLPRPRPRPPRNPRP,1.28
16,RRIRRRPPRLPRPRPRPPRWPRP,0.986
17,RRIRRRPPRLPRPRPRPPSGPRP,0.682
18,RRIRRRPPRLPRPRPRPPSMPRP,0.426
19,RRIRRRPPRLPRPRPRPPVQPRP,0.366
20,RRIRRRPPRLPRPRPRPPWRPRP,0.757
21,RRIRRRPPRLPRPRPRPQCGPRP,0.317
22,RRIRRRPPRLPRPRPRPQCMPRP,-0.0592
23,RRIRRRPPRLPRPRPRPQDTPRP,-0.321
24,RRIRRRPPRLPRPRPRPQEPPRP,0.0839
25,RRIRRRPPRLPRPRPRPQESPRP,-0.131

row,Sequence,shrunken log2 fold change
1,RRIRRRPPRLPRPRPRPQEYPRP,-0.0725
2,RRIRRRPPRLPRPRPRPQFWPRP,0.172
3,RRIRRRPPRLPRPRPRPQGHPRP,0.071
4,RRIRRRPPRLPRPRPRPQGIPRP,-0.00228
5,RRIRRRPPRLPRPRPRPQIKPRP,-0.155
6,RRIRRRPPRLPRPRPRPQITPRP,0.0752
7,RRIRRRPPRLPRPRPRPQKIPRP,0.0999
8,RRIRRRPPRLPRPRPRPQKWPRP,0.136
9,RRIRRRPPRLPRPRPRPQMFPRP,-0.25
10,RRIRRRPPRLPRPRPRPQMKPRP,-0.0643
11,RRIRRRPPRLPRPRPRPQNLPRP,-0.276
12,RRIRRRPPRLPRPRPRPQNNPRP,0.198
13,RRIRRRPPRLPRPRPRPQNRPRP,0.318
14,RRIRRRPPRLPRPRPRPQPNPRP,0.355
15,RRIRRRPPRLPRPRPRPQPWPRP,0.067
16,RRIRRRPPRLPRPRPRPQQRPRP,0.795
17,RRIRRRPPRLPRPRPRPQREPRP,0.153
18,RRIRRRPPRLPRPRPRPQRGPRP,0.399
19,RRIRRRPPRLPRPRPRPQSDPRP,0.244
20,RRIRRRPPRLPRPRPRPQSNPRP,-0.285
21,RRIRRRPPRLPRPRPRPQTYPRP,-0.0324
22,RRIRRRPPRLPRPRPRPQWIPRP,0.064
23,RRIRRRPPRLPRPRPRPQWRPRP,0.364
24,RRIRRRPPRLPRPRPRPQYFPRP,-0.0475
25,RRIRRRPPRLPRPRPRPRANPRP,0.954
